Results published in US20240400644A1 (ACROIMMUNE GUANGZHOU BIOTECH, published 2024).

T1: HMGB1-His tag protein (human, UniProt P09429 1-215, limits assumed)
T1 construct: Bought, HEK293 cell derived; also called human HMGB1; HMGB1-His protein; not shown: His tag
T1 sequence (looked up): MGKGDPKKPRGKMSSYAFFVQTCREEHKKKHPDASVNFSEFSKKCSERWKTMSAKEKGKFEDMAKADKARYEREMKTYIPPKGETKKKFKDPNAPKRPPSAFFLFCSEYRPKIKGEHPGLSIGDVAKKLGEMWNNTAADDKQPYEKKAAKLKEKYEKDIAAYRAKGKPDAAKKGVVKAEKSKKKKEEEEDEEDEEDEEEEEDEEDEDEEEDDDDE

T2: Siglec10-mIgG2aFc fusion protein (human, UniProt Q96LC7 17-546, limits assumed)
T2 construct: Bought, HEK293 cell derived; also called human Siglec-10; AcroBiosystems SIO-H525b; not shown: mouse IgG2a Fc of the bought protein
T2 sequence (looked up): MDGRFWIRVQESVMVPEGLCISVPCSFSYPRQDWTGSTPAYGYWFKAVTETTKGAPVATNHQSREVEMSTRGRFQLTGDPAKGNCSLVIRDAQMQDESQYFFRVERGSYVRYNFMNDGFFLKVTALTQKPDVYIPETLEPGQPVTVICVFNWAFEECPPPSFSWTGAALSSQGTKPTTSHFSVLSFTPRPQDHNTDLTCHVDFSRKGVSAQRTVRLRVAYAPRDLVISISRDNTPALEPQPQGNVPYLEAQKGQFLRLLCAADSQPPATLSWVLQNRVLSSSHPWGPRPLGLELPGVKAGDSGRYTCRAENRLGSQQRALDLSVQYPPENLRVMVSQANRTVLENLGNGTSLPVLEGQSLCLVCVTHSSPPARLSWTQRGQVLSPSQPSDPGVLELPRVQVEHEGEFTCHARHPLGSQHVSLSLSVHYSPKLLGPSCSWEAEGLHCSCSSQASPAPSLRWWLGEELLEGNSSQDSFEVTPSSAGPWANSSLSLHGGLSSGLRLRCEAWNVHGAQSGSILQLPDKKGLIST

B1: CD24Fc (producing cell not stated) (Fc fusion, UniProt P25063 27-59, looked up)
chain: SETTTGTSSNSSQSTSNSGLAPNPTNATTKAAG
notes: not shown: Fc part

Legend:
[1] = biological target: CD24Fc (HEK293 cell derived) (UniProt P25063); assay: direct ELISA, antigen coated at 10 µg/ml, mAb titrated
[2] = biological target: T1, HMGB1-His tag protein; assay: ELISA, HMGB1-His coated at 0.1 µg/mL, fusion protein titrated
Procedure: 96-well plates were coated (100 μL per well) with 0.1 μg/mL HEK293 cell derived HMGB1-His tag protein (AcroBiosystems, HM1-H5220) at 4° C. overnight. After blocking with SuperBlock (Thermo, 37515) at room temperature for 1 hour, 100 μL of 2-fold serial dilutions of AI-071 or CD24Fc (all starting at 1.5 mg/mL, dilution buffer: PBST-1% BSA solution containing 1 mM MgCl2 and 1 mM CaCl2) were added. The bound AI-071 or CD24Fc protein was then detected by adding HRP-labeled goat anti-human IgG-Fc antibody (1:1000, Invitrogen, A18829), followed by the addition of tetramethylbenzidin (TMB) substrates. The EC50 values of the binding are shown in the underneath table. […] Recombinant HMGB1-His protein sample was incubated with AI-071, human IgG-Fc, or none for 5 min, the mixture was then incubated with protein A-conjugated beads to capture (or pull-down) the bound proteins. The captured proteins were then separated in a SDS-PAGE gel and visualized by Coomassie Brilliant Blue dye staining. […] As indicated on the top of each gel, lane 1 represents the sample containing HMGB1 only, lane 2 represents the sample containing HMGB1 and human IgG-Fc, and lane 3 represents the sample containing HMGB1 and AI-071, lane M is the protein molecule weight marker sample. […]

[3] = biological target: T2, Siglec10-mIgG2aFc fusion protein; assay: ELISA, Siglec10-mIgG2aFc coated at 0.2 µg/mL, fusion protein titrated
Procedure: 96-well plates were coated (100 μL per well) with 0.2 μg/mL of HEK293 cell derived Siglec10-mlgG2aFc fusion protein (AcroBiosystems, SIO-H525b) at 4° C. overnight. After blocking with SuperBlock (Thermo, 37515) at room temperature for 1 hour, 100 μL of 2-fold serial dilutions of AI-071 or CD24Fc protein (all starting at 1.5 mg/mL) were added. The bound AI-071 or CD24Fc protein was then detected by HRP-labeled goat anti-human IgG-Fc antibody (1:5000, Invitrogen, A18829) followed by the addition of tetramethylbenzidine (TMB) substrates. The EC50 values of the binding are shown in the underneath table.
To probe the interaction of AI-071 protein with the members of Siglec family such as Siglec10, an ELSIA assay was developed. In-brief, 96-well plates were coated (100 μL per well) with 0.2 μg/mL of HEK293 cell derived Siglec10-mlgG2aFc fusion protein (AcroBiosystems, SIO-H525b) at 4° C. overnight. After washing and blocking with SuperBlock (Thermo, 37515) at room temperature for 1 hour, 100 μL of 2-fold serial dilutions of either AI-71 or CD24Fc (all starting at 1.5 mg/ml) were added. The bound AI-071 or CD24Fc protein was then detected by HRP-labeled goat anti-human IgG-Fc antibody (1:5000, Invitrogen, A18829) followed by the addition of Tetramethylbenzidin (TMB) substrates. […] The OD values at a wavelength of 450 nm (OD 450 nm) in each well were then measured.

| Molecule | EC50 [1] | EC50 [2] | EC50 [3] |
| --- | --- | --- | --- |
| SN3 mouse anti-CD24 mAb (antibody) | 4.67 nM | – | – |
| B1 | – | 51000 nM | 2850 nM |
